Measurements: article PMC7251212

Biological target: recombinant TdfH (Neisseria gonorrhoeae TonB-dependent transporter, NGO0952) (Neisseria gonorrhoeae)
Experiment: ITC; Nano ITC, 25°C, 1x PBS with 0.05% DDM; TdfH (300 μl, 20 μM) in the cell, CP sample (200 μM) in 20 injections of 2.5 μl; fitted with NanoAnalyze to a two-state (multisite) model, TKO to a single-site model

B1: human calprotectin (heterodimer of S100A8 and S100A9) (complex)
chain 1: MLTELEKALNSIIDVYHKYSLIKGNFHAVYRDDLKKLLETECPQYIRKKGADVWFKELDINTDGAVNFQEFLILVIKMGVAAHKKSHEESHKE
chain 2: KMSQLERNIETIINTFHQYSVKLGHPDTLNQGEFKELVRKDLQNFLKKENKNEKVIEHIMEDLDTNADKQLSFEEFIMLMARLTWASHEKMHEGDEGPGHHHKPGLGEGTP
For B1, the KD, high-affinity interaction (two-state model) was 0.004 µM and the KD, low-affinity interaction (two-state model) was 35 µM.
